{
  "source": "paper doi:10.1101/2023.07.28.550924",
  "about": "(bioRxiv, 2023)",
  "binders": {"B1": {"name": "Spirochaeta thermophila YeeD, His-tagged, wild type (natural protein, UniProt G0GAP7 1-80, looked up)", "chain": "MANYQVSKEIDVRGEVCPIPDVEAKRAVQSANDGEIILVRIDYPLSKERIPETVKKLGSEVLEIEEAAPGEWNIYIKVKK"}},
  "key": {"SEC": {"biological_target": "the molecule itself", "test": "SEC"}, "[1]": {"biological_target": "T1, Spirochaeta thermophila YeeE (Spirochaeta thermophila, UniProt G0GAP6 1-328)", "T1 sequence (looked up)": "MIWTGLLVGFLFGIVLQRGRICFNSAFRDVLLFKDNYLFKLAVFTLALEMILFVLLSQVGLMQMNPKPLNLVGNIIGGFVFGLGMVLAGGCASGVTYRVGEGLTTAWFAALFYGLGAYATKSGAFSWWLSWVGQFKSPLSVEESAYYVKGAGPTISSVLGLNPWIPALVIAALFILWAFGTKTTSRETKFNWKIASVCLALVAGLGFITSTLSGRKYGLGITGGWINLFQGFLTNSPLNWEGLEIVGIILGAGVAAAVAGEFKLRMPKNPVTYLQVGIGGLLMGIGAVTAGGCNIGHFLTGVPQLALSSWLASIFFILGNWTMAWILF", "test": "BLI"}},
  "data": [
    {"binder": "B1", "values": [
      {"measurement": "stoichiometry N", "setting": "SEC", "result": 2},
      {"measurement": "Kd", "setting": "[1]", "result": "1600 ± 200", "unit": "nM"}
    ]}
  ]
}
